This test concerns the target complement Factor D present in C1q-depleted human serum (human, UniProt P00746 26-253). Kind of test: cell-based or functional assay.

Sequence of complement Factor D present in C1q-depleted human serum (P00746 26-253 limits assumed): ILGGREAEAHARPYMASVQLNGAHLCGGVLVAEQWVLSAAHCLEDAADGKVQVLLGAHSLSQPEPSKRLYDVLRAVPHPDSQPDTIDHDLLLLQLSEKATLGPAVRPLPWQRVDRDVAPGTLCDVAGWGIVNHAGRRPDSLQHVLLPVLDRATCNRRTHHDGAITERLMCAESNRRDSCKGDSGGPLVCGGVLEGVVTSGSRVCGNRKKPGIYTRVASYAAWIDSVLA

B1: anti-fD Fab with an amino acid sequence of heavy chain variable region according to SEQ ID NO:7 and light chain variable region according to SEQ ID NO:8 (Fab)
heavy: EVQLVQSGPELKKPGASVKVSCKASGYTFTNYGMNWVRQAPGQGLEWMGWINTYTGETTYADDFKGRFVFSLDTSVSTAYLQISSLKAEDTAVYYCERGGVNNWGQGTLVTVSSASTKGPSVFPLAPSSKSTSGGTAALGCLVKDYFPEPVTVSWNSGALTSGVHTFPAVLQSSGLYSLSSVVTVPSSSLGTQTYICNVNHKPSNTKVDKKVEPKSCDKTHT
light: DIQVTQSPSSLSASVGDRVTITCITSTDIDDDMNWYQQKPGKVPKLLISGGNTLRPGVPSRFSGSGSGTDFTLTISSLQPEDVATYYCLQSDSLPYTFGQGTKVEIKRTVAAPSVFIFPPSDEQLKSGTASVVCLLNNFYPREAKVQWKVDNALQSGNSQESVTEQDSKDSTYSLSSTLTLSKADYEKHKVYACEVTHQGLSSPVTKSFNRGEC
As for B1, the “IC50 inhibiting alternative complement in human serum (fD-dependent lysis of rabbit red blood cells)” value was 3.3 nM.

These data come from patent US20190032056A1 (VITRISA THERAPEUTICS, published 2019).
